Results on three molecules are retold here after US20250276073A1 (Bicycle, published 2025).

In the experiment the target is T1, Recombinant human His-tagged TfR1 (a.a. 89-760) (ACRO Biosystems, CD1-H5243) (human, UniProt P02786 89-760).
T1 construct: range 89-760; Bought protein; Captured and amine-coupled on an NTA chip; also called human TfR1; transferrin receptor 1; not shown: His tag (printed 'Hiss-tagged')
Nature of the experiment: SPR (Biacore), TfR1 captured/coupled on NTA chip, peptide as analyte. Background: SPR reads the build-up and loss of mass on a sensor chip optically.

T1 sequence (P02786 89-760 limits assumed): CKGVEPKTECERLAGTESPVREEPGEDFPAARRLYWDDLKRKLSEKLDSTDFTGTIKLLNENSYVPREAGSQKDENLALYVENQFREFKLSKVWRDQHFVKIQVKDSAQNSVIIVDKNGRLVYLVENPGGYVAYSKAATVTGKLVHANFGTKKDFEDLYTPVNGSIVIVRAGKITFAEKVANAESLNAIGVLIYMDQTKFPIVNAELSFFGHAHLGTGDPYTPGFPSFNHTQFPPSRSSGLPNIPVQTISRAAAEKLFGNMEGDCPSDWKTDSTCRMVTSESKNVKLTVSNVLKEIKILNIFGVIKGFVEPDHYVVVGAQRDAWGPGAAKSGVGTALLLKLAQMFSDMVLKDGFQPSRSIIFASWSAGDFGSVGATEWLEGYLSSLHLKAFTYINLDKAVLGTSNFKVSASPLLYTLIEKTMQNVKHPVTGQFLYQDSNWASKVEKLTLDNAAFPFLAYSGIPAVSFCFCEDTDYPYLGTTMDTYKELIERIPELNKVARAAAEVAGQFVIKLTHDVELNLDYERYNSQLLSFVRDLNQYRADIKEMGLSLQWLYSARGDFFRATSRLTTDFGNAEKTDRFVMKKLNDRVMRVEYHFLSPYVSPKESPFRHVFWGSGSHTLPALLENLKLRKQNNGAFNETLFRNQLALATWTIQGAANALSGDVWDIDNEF

B1: BCY23200 (peptide)
peptide: CPXDAYLGCXSXCEPW
modifications: CP[HyP]DAYLGC[tBuGly]S[DOPA]CEPW: HyP at 3, tBuGly at 10, DOPA at 12; N-terminal acetyl; C-terminal CONH2; Cys 1, 9, 13 bonded to TATB scaffold
notes: Bicyclic peptide
By Kd is commonly meant the free concentration of one partner at which half of the binding sites on the other are occupied at equilibrium, for simple one-to-one binding. B1: the Kd was determined as 0.0095 µM.

B2: BCY23188 (peptide)
peptide: CPXDAXLGCXSYCEPW
modifications: CP[HyP]DA[hTyr]LGC[tBuGly]SYCEPW: HyP at 3, hTyr at 6, tBuGly at 10; N-terminal acetyl; C-terminal CONH2; Cys 1, 9, 13 bonded to TATB scaffold
notes: Bicyclic peptide
Regarding B2, the equilibrium dissociation constant (Kd) came to 0.109 µM.

B3: BCY23201 (peptide)
peptide: CPXDAYLGCXSXCEPW
modifications: CP[HyP]DAYLGC[tBuGly]S[pCaPhe]CEPW: HyP at 3, tBuGly at 10, pCaPhe at 12; N-terminal acetyl; C-terminal CONH2; Cys 1, 9, 13 bonded to TATB scaffold
notes: Bicyclic peptide
In the case of B3, the equilibrium dissociation constant (Kd) is 0.017 µM.
